Laboratory results taken from paper PMC11514458.

Experiments:
RAD51 [1] = biological target: T1, RAD51 (UniProt Q06609 1-339); experiment: stopped-flow fluorescence (global fit); RAD51 without BCDX2; ATP, Mg2+; EMSA: 20 mM Tris-HCl pH 7.5, 2 mM MgCl2, 2 mM ATP, 37 C, 20 nM DNA, glutaraldehyde fixation; stopped-flow: 25 mM Tris-HCl pH 7.5, 5 mM MgCl2, 50 mM KCl, 2 mM ATP, 0.5 mM EDTA, 10% glycerol, 37 C; BLI: 50 mM Tris-HCl pH 7.5, 2 mM ATP, 50 mM KCl, 5 mM MgCl2, 0.05% Tween 20, room temperature; settings: protein: recombinant; chain copies: 10; label: Cy3 at 3' or 5'
RAD51 [2] = biological target: T1, RAD51; experiment: stopped-flow fluorescence (Hill); Kd,1; ATP, Mg2+; EMSA: 20 mM Tris-HCl pH 7.5, 2 mM MgCl2, 2 mM ATP, 37 C, 20 nM DNA, glutaraldehyde fixation; stopped-flow: 25 mM Tris-HCl pH 7.5, 5 mM MgCl2, 50 mM KCl, 2 mM ATP, 0.5 mM EDTA, 10% glycerol, 37 C; BLI: 50 mM Tris-HCl pH 7.5, 2 mM ATP, 50 mM KCl, 5 mM MgCl2, 0.05% Tween 20, room temperature; settings: protein: recombinant; chain copies: 10; label: Cy3 at 3' or 5'
RAD51 [3] = biological target: T1, RAD51; experiment: stopped-flow fluorescence (global fit); initial weak binding step; 2 mM ATP, 5 mM Mg2+; EMSA: 20 mM Tris-HCl pH 7.5, 2 mM MgCl2, 2 mM ATP, 37 C, 20 nM DNA, glutaraldehyde fixation; stopped-flow: 25 mM Tris-HCl pH 7.5, 5 mM MgCl2, 50 mM KCl, 2 mM ATP, 0.5 mM EDTA, 10% glycerol, 37 C; BLI: 50 mM Tris-HCl pH 7.5, 2 mM ATP, 50 mM KCl, 5 mM MgCl2, 0.05% Tween 20, room temperature; settings: protein: recombinant; chain copies: 10; label: Cy3 at 3' or 5'
BCDX2 complex [4] = biological target: T2, BCDX2 complex (human, UniProt O15315;O43502;O75771;O43543 1-384;1-376;1-328;1-280); experiment: stopped-flow fluorescence (global fit); initial complex k1/k-1; 2 mM ATP, 5 mM Mg2+; EMSA: 20 mM Tris-HCl pH 7.5, 2 mM MgCl2, 2 mM ATP, 37 C, 20 nM DNA, glutaraldehyde fixation; stopped-flow: 25 mM Tris-HCl pH 7.5, 5 mM MgCl2, 50 mM KCl, 2 mM ATP, 0.5 mM EDTA, 10% glycerol, 37 C; BLI: 50 mM Tris-HCl pH 7.5, 2 mM ATP, 50 mM KCl, 5 mM MgCl2, 0.05% Tween 20, room temperature; settings: protein: recombinant; tags: Strep-tag and His-tag (XRCC2 N-terminal His); copies: 1;1;1;1; label: Cy3 at 3' or 5'
T2 sequence 1: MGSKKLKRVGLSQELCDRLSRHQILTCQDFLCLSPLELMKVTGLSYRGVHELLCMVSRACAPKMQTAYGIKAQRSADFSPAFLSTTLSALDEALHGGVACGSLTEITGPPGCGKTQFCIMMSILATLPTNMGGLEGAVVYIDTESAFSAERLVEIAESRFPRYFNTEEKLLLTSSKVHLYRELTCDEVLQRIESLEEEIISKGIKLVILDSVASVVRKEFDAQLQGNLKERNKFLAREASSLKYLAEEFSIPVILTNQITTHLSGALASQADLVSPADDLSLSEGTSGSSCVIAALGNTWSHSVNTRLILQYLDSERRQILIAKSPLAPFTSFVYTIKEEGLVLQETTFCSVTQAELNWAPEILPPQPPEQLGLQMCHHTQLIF
T2 sequence 2: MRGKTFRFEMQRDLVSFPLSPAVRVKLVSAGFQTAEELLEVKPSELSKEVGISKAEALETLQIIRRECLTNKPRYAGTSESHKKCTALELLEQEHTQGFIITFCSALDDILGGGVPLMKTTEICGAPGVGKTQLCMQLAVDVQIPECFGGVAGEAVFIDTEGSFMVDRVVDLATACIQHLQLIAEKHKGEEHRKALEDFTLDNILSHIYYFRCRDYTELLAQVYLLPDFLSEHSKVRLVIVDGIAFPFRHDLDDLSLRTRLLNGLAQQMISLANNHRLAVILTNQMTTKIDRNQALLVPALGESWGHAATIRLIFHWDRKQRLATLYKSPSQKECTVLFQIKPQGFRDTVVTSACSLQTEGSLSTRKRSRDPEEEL
T2 sequence 3: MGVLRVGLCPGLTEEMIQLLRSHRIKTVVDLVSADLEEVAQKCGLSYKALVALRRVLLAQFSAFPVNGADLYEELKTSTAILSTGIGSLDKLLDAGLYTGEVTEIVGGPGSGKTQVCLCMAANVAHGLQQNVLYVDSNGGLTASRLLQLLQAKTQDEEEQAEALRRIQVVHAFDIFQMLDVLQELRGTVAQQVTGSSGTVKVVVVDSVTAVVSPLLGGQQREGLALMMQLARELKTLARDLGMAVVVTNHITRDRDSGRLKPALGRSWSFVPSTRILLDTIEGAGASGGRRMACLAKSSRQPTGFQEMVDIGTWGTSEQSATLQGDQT
T2 sequence 4: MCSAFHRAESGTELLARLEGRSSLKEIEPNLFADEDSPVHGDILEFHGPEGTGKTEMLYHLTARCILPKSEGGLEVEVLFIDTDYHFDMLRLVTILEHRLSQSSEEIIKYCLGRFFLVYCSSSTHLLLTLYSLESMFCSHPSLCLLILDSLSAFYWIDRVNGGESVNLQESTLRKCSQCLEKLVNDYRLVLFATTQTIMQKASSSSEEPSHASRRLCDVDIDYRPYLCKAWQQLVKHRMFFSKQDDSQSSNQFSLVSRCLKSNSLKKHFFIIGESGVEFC

BCDX2 complex [5] = biological target: T2, BCDX2 complex; experiment: stopped-flow fluorescence (amplitude, A1); Kd,1 initial complex; ATP, Mg2+; EMSA: 20 mM Tris-HCl pH 7.5, 2 mM MgCl2, 2 mM ATP, 37 C, 20 nM DNA, glutaraldehyde fixation; stopped-flow: 25 mM Tris-HCl pH 7.5, 5 mM MgCl2, 50 mM KCl, 2 mM ATP, 0.5 mM EDTA, 10% glycerol, 37 C; BLI: 50 mM Tris-HCl pH 7.5, 2 mM ATP, 50 mM KCl, 5 mM MgCl2, 0.05% Tween 20, room temperature; settings: protein: recombinant; tags: Strep-tag and His-tag (XRCC2 N-terminal His); copies: 1;1;1;1; label: Cy3 at 3' or 5'
BCDX2 complex [6] = biological target: T2, BCDX2 complex; experiment: stopped-flow fluorescence (total amplitude); Kd,net two-step; ATP, Mg2+; EMSA: 20 mM Tris-HCl pH 7.5, 2 mM MgCl2, 2 mM ATP, 37 C, 20 nM DNA, glutaraldehyde fixation; stopped-flow: 25 mM Tris-HCl pH 7.5, 5 mM MgCl2, 50 mM KCl, 2 mM ATP, 0.5 mM EDTA, 10% glycerol, 37 C; BLI: 50 mM Tris-HCl pH 7.5, 2 mM ATP, 50 mM KCl, 5 mM MgCl2, 0.05% Tween 20, room temperature; settings: protein: recombinant; tags: Strep-tag and His-tag (XRCC2 N-terminal His); copies: 1;1;1;1; label: Cy3 at 3' or 5'
RAD51;BCDX2 complex = RAD51;BCDX2 complex (human?;human, UniProt Q06609;O15315;O43502;O75771;O43543 1-339;1-384;1-376;1-328;1-280, |); experiment: stopped-flow fluorescence (global fit); RAD51 binding in presence of BCDX2; ATP, Mg2+; EMSA: 20 mM Tris-HCl pH 7.5, 2 mM MgCl2, 2 mM ATP, 37 C, 20 nM DNA, glutaraldehyde fixation; stopped-flow: 25 mM Tris-HCl pH 7.5, 5 mM MgCl2, 50 mM KCl, 2 mM ATP, 0.5 mM EDTA, 10% glycerol, 37 C; BLI: 50 mM Tris-HCl pH 7.5, 2 mM ATP, 50 mM KCl, 5 mM MgCl2, 0.05% Tween 20, room temperature; settings: protein: recombinant;recombinant; tags: ;Strep-tag and His-tag (XRCC2 N-terminal His); copies: 1;1;1;1;1; label: Cy3 at 3' or 5'
RAD51;BCDX2 complex, sequence (Q06609 whole entry, one chain of several): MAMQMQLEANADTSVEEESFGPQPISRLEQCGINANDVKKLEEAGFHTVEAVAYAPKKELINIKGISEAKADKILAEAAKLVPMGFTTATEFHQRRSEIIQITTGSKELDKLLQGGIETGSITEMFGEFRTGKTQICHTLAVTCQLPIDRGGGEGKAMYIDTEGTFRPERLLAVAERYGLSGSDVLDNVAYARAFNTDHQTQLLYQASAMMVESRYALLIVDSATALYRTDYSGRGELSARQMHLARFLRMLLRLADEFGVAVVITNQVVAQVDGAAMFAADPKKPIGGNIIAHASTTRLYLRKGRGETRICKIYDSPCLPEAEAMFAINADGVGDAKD

T1 sequence (Q06609 whole entry): as the sequence (Q06609 whole entry, one chain of several) above

TTTTTTTTTTTTTTTTTTTTTTTTTTTTTTTTTTTTTTTTTTT (ssDNA) [Cy3-dT43]
Ka (RAD51 [1]): 0.026 nM⁻¹
Kd (RAD51 [2]): 1600 ± 200 nM
Ka (RAD51 [3]): 0.09 µM⁻¹
Ka (BCDX2 complex [4]): 3.1 µM⁻¹
Kd (BCDX2 complex [5]): 310 ± 50 nM
Kd (BCDX2 complex [6]): 220 ± 20 nM
Ka (RAD51;BCDX2 complex): 0.064 nM⁻¹
